For this test, the target named is Biotinylated human IRE1.KR protein (human) (UniProt O75460). Briefly: SPR; Biacore S200, 20 °C; biotinylated IRE1.KR captured on a streptavidin chip (100-200 RU); VHL titrated without G6374, 8-point 2-fold series, top 5 µM, single cycle kinetics; 50 mM HEPES pH 7.4, 150 mM NaCl, 0.01% Tween 20, 0.2% PEG3350, 0.25 mM TCEP, 100 µg/ml ovalbumin, 2% DMSO.
Chain of Biotinylated human IRE1.KR protein (human) (O75460 547-977): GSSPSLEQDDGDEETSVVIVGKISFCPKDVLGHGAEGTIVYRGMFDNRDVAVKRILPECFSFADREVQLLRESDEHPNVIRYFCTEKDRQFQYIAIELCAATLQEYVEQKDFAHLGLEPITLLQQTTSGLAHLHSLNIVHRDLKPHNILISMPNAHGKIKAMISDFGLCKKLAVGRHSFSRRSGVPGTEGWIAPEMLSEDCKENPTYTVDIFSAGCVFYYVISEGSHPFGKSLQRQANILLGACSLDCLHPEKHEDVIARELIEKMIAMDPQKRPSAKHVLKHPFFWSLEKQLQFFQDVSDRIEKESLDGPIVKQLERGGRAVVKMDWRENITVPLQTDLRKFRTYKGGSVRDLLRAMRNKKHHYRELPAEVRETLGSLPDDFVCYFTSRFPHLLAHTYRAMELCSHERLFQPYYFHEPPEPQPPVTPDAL

As for “his-VHL/EloB (VHL in complex with Elongin B) (from UniProt P40337 1-213; Q15370 1-118)”, the KD without G6374 was greater than 10 µM.

For the origin of these results see publication PMC12749748, “Chemically-induced degradation of the endoplasmic-reticulum stress sensor IRE1 by a VHL-recruiting chimera” (Nature Communications, 2025).
